# The supplement of paper PMC7877785
# ± gives the uncertainty stated by the source.
# Assay: self-splicing fitness, log relative to wild type (ln ratio); higher = more splicing; Tetrahymena group I intron in knt gene, E. coli kanamycin selection, DiMSum; sequences stand for … in CUCUCU…GGAGGGAAAAGUUAUCAGGCAUGCACCUGGUAGCUAGUCUUUAAACCAAUAGAUUGCAUCGGUUUAAAAGGCAAGACCGUCAAAUUGCGGGAAAGGGGUCAACAGCCGUUCAGUACCAAGUCUCAGGGGAAACUUUGAGAUGGCCUUGCAAAGGGUAUGGUAAUAAGCUGACGGACAUGGUCCUAACCACGCAGCCAAGUCCUAAGUCAACAGAUCUUCUGUUGAUAUGGAUGCAGUUCACAGACUAAAUGUCGGUCGGGGAAGAUGUAUUCUUCUCAUAAGAUAUAGUCGGACCUCUCCUUAAUGGGAGCUAGCGGAUGAAGUGAUGCAACACUGGAGCCGCUGGGAACUAAUUUGUAUGCGAAAGUAUAUUGAUUAGUUUUGGAGUACUCGUGGUCG
# Method in brief: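 A randomised library covering all eight P1ex-region intron nucleotides was built with the intron in the knt kanamycin-resistance gene on pET-22b(+) and held in E. coli BL21(DE3). Cells were grown overnight at 37°C or 30°C on LB agar, with or without 25 μg/mL kanamycin, plus 100 μg/mL carbenicillin, 50 μM IPTG and 0.2% rhamnose, and pooled colonies were amplicon-sequenced on an Illumina HiSeq 2500. DiMSum fitness is the error-weighted combination of wild-type-normalised replicate fold changes, kanamycin versus none.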
Sequence,self-splicing fitness (ln) (30 °C),self-splicing fitness (ln) (37 °C)
AUCCAGCAAUAUUACGAUAU,-0.123 ± 0.075,-0.114 ± 0.071
AUCCAGCAAUAUUACGAUCA,-1.43 ± 0.12,-1.09 ± 0.14
AUCCAGCAAUAUUACGAUCU,-1.84 ± 0.091,-0.641 ± 0.12
AUCCAGCAAUAUUACGCAUA,-1.19 ± 0.12,-0.443 ± 0.12
AUCCAGCAAUAUUACGCGCC,-0.363 ± 0.14,0.126 ± 0.17
AUCCAGCAAUAUUACGCUCA,0.0746 ± 0.13,0.8 ± 0.17
AUCCAGCAAUAUUACGGAAC,-2.68 ± 0.18,-1.06 ± 0.15
AUCCAGCAAUAUUACGGAUC,-3.35 ± 0.18,-3.11 ± 0.2
AUCCAGCAAUAUUACGGGCC,-1.23 ± 0.2,-1.24 ± 0.33
AUCCAGCAAUAUUACGGGCG,-0.327 ± 0.066,0.25 ± 0.089
AUCCAGCAAUAUUACGGUCC,-1.39 ± 0.13,-0.176 ± 0.21
AUCCAGCAAUAUUACGGUGU,-1.07 ± 0.062,-0.834 ± 0.079
AUCCAGCAAUAUUACGUAGU,-1.54 ± 0.074,-0.703 ± 0.093
AUCCAGCAAUAUUACGUAUA,-0.94 ± 0.11,-1.11 ± 0.14
AUCCAGCAAUAUUACGUCUU,-0.371 ± 0.065,0.716 ± 0.081
AUCCAGCAAUAUUACGUGAU,-2.15 ± 0.1,-1.04 ± 0.12
AUCCAGCAAUAUUACGUGGA,-4.34 ± 0.39,-2.23 ± 0.19
AUCCAGCAAUAUUACGUUAU,-1.36 ± 0.072,-0.198 ± 0.089
AUCCAGCAAUAUUACGUUUG,-2.58 ± 0.12,-2.93 ± 0.18
AUCGAGCAAUAUUACGAACU,-1.06 ± 0.17,-0.725 ± 0.19
AUCGAGCAAUAUUACGACGA,-0.908 ± 0.099,-0.324 ± 0.13
AUCGAGCAAUAUUACGAGAA,,-2.44 ± 0.34
AUCGAGCAAUAUUACGAUCU,-1.58 ± 0.086,-0.957 ± 0.08
AUCGAGCAAUAUUACGAUGA,-3.37 ± 0.25,-1.86 ± 0.16

Sequence,self-splicing fitness (ln) (30 °C),self-splicing fitness (ln) (37 °C)
AUCGAGCAAUAUUACGAUUG,-4.49 ± 0.46,-3.32 ± 0.26
AUCGAGCAAUAUUACGCAGG,-3.53 ± 0.28,-2.77 ± 0.22
AUCGAGCAAUAUUACGCCCG,-3.48 ± 0.36,-0.807 ± 0.32
AUCGAGCAAUAUUACGCCGG,-1.43 ± 0.22,-1.57 ± 0.3
AUCGAGCAAUAUUACGCUGA,,-1.82 ± 0.32
AUCGAGCAAUAUUACGGAAA,,-2.64 ± 0.34
AUCGAGCAAUAUUACGGCCU,-3.22 ± 0.3,-1.2 ± 0.17
AUCGAGCAAUAUUACGGGAU,-2.82 ± 0.15,-1.78 ± 0.19
AUCGAGCAAUAUUACGGGCA,-1.99 ± 0.23,-1.32 ± 0.27
AUCGAGCAAUAUUACGGUUU,-2.08 ± 0.091,-1.71 ± 0.099
AUCGAGCAAUAUUACGUAAU,-1.91 ± 0.12,-1.25 ± 0.13
AUCGAGCAAUAUUACGUACC,-3.76 ± 0.35,-1.53 ± 0.34
AUCGAGCAAUAUUACGUGAA,-2.75 ± 0.14,-1.83 ± 0.16
AUCGAGCAAUAUUACGUGUU,-2.9 ± 0.22,-2.42 ± 0.29
AUCGAGCAAUAUUACGUUAC,-3.04 ± 0.28,-1.82 ± 0.27
AUCGAGCAAUAUUACGUUCA,-0.62 ± 0.095,-0.544 ± 0.13
AUCUAGCAAUAUUACGACGC,-0.785 ± 0.089,-0.226 ± 0.13
AUCUAGCAAUAUUACGAUCC,-1.97 ± 0.18,-0.573 ± 0.26
AUCUAGCAAUAUUACGAUGA,-1.03 ± 0.091,-0.237 ± 0.091
AUCUAGCAAUAUUACGCCAA,,-0.995 ± 0.48
AUCUAGCAAUAUUACGCGGU,-2.85 ± 0.18,-2.73 ± 0.26
AUCUAGCAAUAUUACGCGUC,-3.53 ± 0.39,-1.07 ± 0.18
AUCUAGCAAUAUUACGGCAU,0.455 ± 0.096,0.24 ± 0.1
AUCUAGCAAUAUUACGGCUU,-0.0659 ± 0.1,0.305 ± 0.12

Sequence,self-splicing fitness (ln) (30 °C),self-splicing fitness (ln) (37 °C)
AUCUAGCAAUAUUACGGGCC,-3.15 ± 0.23,-2.18 ± 0.22
AUCUAGCAAUAUUACGGGUG,-1.93 ± 0.067,-0.57 ± 0.067
AUCUAGCAAUAUUACGGGUU,-3.51 ± 0.15,-3.09 ± 0.21
AUCUAGCAAUAUUACGUACC,-1.3 ± 0.091,-0.395 ± 0.11
AUCUAGCAAUAUUACGUACU,-0.329 ± 0.082,-0.199 ± 0.11
AUCUAGCAAUAUUACGUCGC,-3.06 ± 0.47,-1.86 ± 0.49
AUCUAGCAAUAUUACGUGCU,-2.25 ± 0.17,-1.97 ± 0.28
AUCUAGCAAUAUUACGUGUA,-2.44 ± 0.12,-1.31 ± 0.11
AUCUAGCAAUAUUACGUUCA,-1.33 ± 0.099,-0.242 ± 0.085
AUGAAGCAAUAUUACGACCA,0.00939 ± 0.06,0.489 ± 0.083
AUGAAGCAAUAUUACGACGC,0.112 ± 0.13,-0.034 ± 0.17
AUGAAGCAAUAUUACGAUCA,-0.14 ± 0.081,0.405 ± 0.11
AUGAAGCAAUAUUACGCAAG,-0.379 ± 0.085,-0.121 ± 0.11
AUGAAGCAAUAUUACGCGAA,-1.15 ± 0.087,-0.0789 ± 0.093
AUGAAGCAAUAUUACGCUCC,-0.958 ± 0.32,0.251 ± 0.35
AUGAAGCAAUAUUACGCUGA,-1.2 ± 0.13,-1.24 ± 0.17
AUGAAGCAAUAUUACGCUGG,-1.42 ± 0.1,-0.718 ± 0.12
AUGAAGCAAUAUUACGCUUC,-1.79 ± 0.15,-2.99 ± 0.41
AUGAAGCAAUAUUACGGCAU,-0.0745 ± 0.047,0.444 ± 0.063
AUGAAGCAAUAUUACGGGAG,-1.71 ± 0.098,-1.16 ± 0.11
AUGAAGCAAUAUUACGGGAU,-0.638 ± 0.056,-0.499 ± 0.093
AUGAAGCAAUAUUACGGUCG,0.0254 ± 0.086,0.299 ± 0.1
AUGAAGCAAUAUUACGGUUA,-0.509 ± 0.058,0.318 ± 0.077
AUGAAGCAAUAUUACGGUUU,-1.99 ± 0.088,-0.875 ± 0.091

Sequence,self-splicing fitness (ln) (30 °C),self-splicing fitness (ln) (37 °C)
AUGAAGCAAUAUUACGUACA,-0.369 ± 0.083,-0.631 ± 0.089
AUGAAGCAAUAUUACGUAGU,-1.91 ± 0.062,-0.665 ± 0.092
AUGAAGCAAUAUUACGUAUG,-1.78 ± 0.082,-1.26 ± 0.098
AUGAAGCAAUAUUACGUCCU,-0.113 ± 0.093,0.0551 ± 0.11
AUGAAGCAAUAUUACGUCGU,-0.896 ± 0.07,-0.0581 ± 0.089
AUGAAGCAAUAUUACGUGAU,-1.24 ± 0.073,-0.839 ± 0.085
AUGAAGCAAUAUUACGUGCG,-0.65 ± 0.08,0.532 ± 0.11
AUGAAGCAAUAUUACGUGGA,-2.73 ± 0.096,-1.45 ± 0.11
AUGCAGCAAUAUUACGAAUU,-1.9 ± 0.1,-0.246 ± 0.12
AUGCAGCAAUAUUACGACGC,-1.48 ± 0.11,-1.32 ± 0.12
AUGCAGCAAUAUUACGAGAC,-3.17 ± 0.29,-2.59 ± 0.33
AUGCAGCAAUAUUACGAGCC,-2.69 ± 0.2,-0.935 ± 0.18
AUGCAGCAAUAUUACGAGCU,-0.624 ± 0.073,-0.565 ± 0.088
AUGCAGCAAUAUUACGAGGU,-3.04 ± 0.16,-2.27 ± 0.13
AUGCAGCAAUAUUACGAUAA,-1.55 ± 0.1,0.424 ± 0.092
AUGCAGCAAUAUUACGCACA,-0.62 ± 0.11,0.467 ± 0.13
AUGCAGCAAUAUUACGCUGG,-2.5 ± 0.17,-2.68 ± 0.25
AUGCAGCAAUAUUACGGAGC,-2.6 ± 0.15,-2.99 ± 0.18
AUGCAGCAAUAUUACGGAGG,-3.79 ± 0.2,-2.07 ± 0.15
AUGCAGCAAUAUUACGGCCA,-0.753 ± 0.14,0.267 ± 0.14
AUGCAGCAAUAUUACGGGCC,-1.43 ± 0.1,-1.02 ± 0.11
AUGCAGCAAUAUUACGGGGC,-4.09 ± 0.23,-2.54 ± 0.21
AUGCAGCAAUAUUACGGGUC,-3.56 ± 0.31,-1.61 ± 0.13
AUGCAGCAAUAUUACGGGUU,-1.98 ± 0.075,-1.29 ± 0.096
